One series has as its system soybean seeds. Put plainly: Free amino acid concentration in seeds of soybean transformed with threonine deaminase constructs (TCA extraction, OPA HPLC, fluorescence). Format: in vivo. The conditions noted are these: transformed soybean plants. How it is done: The concentration of free isoleucine in seeds was determined by crushing approximately 50 mg of seed, placing the crushed material in a centrifuge vial, and then weighing. One mL of 5% trichloroacetic acid was added to each sample vial. The samples were mixed, using a vortex mixer, at room temperature for 15 minutes. The samples were then spun in a microcentrifuge for 15 minutes at 14,000 rpm. Some of the supernatant was then removed, placed in a HPLC vial and sealed. Samples were kept at 4° C. prior to analysis. A single seed analysis was performed on all R1 soybean seed, with 5 seeds per event, and one injection per seed. For subsequent generations representing the R2 and R3 seeds, a bulk assay having 10 seeds for each event, and one injection per event was used. The samples were analyzed using the Agilent Technologies 1100 series HPLC system. A 0.5 μL aliquot of the sample was derivatized with 2.5 μL of OPA (o-phthalaldehyde and 3-mercaptopropionic acid in borate buffer, Hewlett-Packard PN 5061-3335) reagent in 10 μl of 0.4 N borate buffer pH 10.2 (Hewlett-Packard, PN 5061-3339). The derivative was injected onto an Agilent Technologies Eclipse® XDB-C18 3.5 μm, 4.6×75 mm at 2 mL/min flow rate. […] Isoleucine concentrations were measured using fluorescence detection (excitation at 340 nm, emission at 450 nm) and values were calculated from a standard curve ranging from 10 to 800 μg/mL. […]

In series [1] the test system is E. coli threonine deaminase. The series is described as follows: Steady state kinetic analysis of E. coli ilvA threonine deaminase variants, continuous assay of α-ketobutyrate at 230 nm, with and without L-isoleucine. Format: biochemical. The conditions noted are these: for Km: E. coli ilvA TD expressed in E. coli, crude extract, pH 7.5, read-out: Km^Thr; for IC50: inhibition of TD activity by L-isoleucine. As to the method:
Before conducting further transformation experiments using the isolated ilvA alleles in transgenic plants, each allele was over-expressed in E. coli to determine its kinetic parameters. Kinetics data on threonine deaminases containing various mutations, and a comparison to data available for threonine deaminases from Arabidopsis, are provided in Table 4. The E. coli ilvA481 variants were subcloned into pSE380 (Invitrogen, Carlsbad, Calif.) and expression was induced with 0.2 mM IPTG at 37° C. for 3 hours. Expression of the E. coli alleles was high and fairly consistent as visualized by SDS-PAGE.
The effects of amino acid substitutions at Leu481 in ilvA were assessed by steady state kinetic analysis in the presence and absence of L-isoleucine. Threonine deaminase polypeptides for use in in vitro kinetics studies were extracted from E. coli cells in assay buffer containing 50 mM potassium phosphate (pH7.5), 1 mM dithiothreitol (DTT), and 0.5 mM ethylenediamine-tetraacetate. A continuous assay method was employed to monitor the formation of α-ketobutyrate directly at 230 nm (ε230 (pH7.5)=540 M^−1cm^−1 whereas threonine absorption was negligible (˜1%)). The assay was initiated by adding 20 μl of crude extract diluted 1:20 v/v to the assay vessel containing L-threonine (between 2.5 mM and 50 mM) in a final volume of 1 mL. For L-isoleucine inhibition, L-isoleucine was added between 0 mM and 20 mM. The kinetic parameters were determined by fitting the data points to the equations using GraFit 4.0 software (Erithacus Software, Surrey, UK). For comparison, the kcat values of L481 alleles were normalized to the kcat value for the wild type IlvA enzyme. Enzymes represented in FIG. 7 are: wild type E. coli threonine deaminase (circles), L481Y TD enzyme (diamonds), L481F TD enzyme (triangles), and the L481T TD enzyme (squares). Table 4 also summarizes the kinetic parameters of the variant threonine deaminase enzymes produced by the various E. coli ilvA alleles.

The target in series [2] is T1, Arabidopsis threonine deaminase (Arabidopsis thaliana, UniProt Q9ZSS6).
T1 sequence (Q9ZSS6 92-592): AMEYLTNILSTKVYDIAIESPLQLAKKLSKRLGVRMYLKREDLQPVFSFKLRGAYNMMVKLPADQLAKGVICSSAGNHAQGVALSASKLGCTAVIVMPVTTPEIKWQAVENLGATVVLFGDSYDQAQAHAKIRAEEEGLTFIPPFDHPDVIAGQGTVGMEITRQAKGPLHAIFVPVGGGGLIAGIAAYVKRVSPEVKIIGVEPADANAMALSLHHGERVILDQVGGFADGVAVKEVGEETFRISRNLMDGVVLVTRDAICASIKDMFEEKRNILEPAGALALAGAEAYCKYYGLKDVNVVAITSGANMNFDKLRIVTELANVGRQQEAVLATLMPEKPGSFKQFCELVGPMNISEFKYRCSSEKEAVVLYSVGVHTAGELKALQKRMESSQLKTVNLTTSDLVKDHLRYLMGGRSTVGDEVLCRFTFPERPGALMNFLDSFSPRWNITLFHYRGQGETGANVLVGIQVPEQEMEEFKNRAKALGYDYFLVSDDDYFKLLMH
Put plainly: Kinetics data for Arabidopsis threonine deaminases (comparison in Table 4, FIG. 6). Format: biochemical. The conditions noted are these: initial velocity vs threonine concentration.

Turning to “ilvA219: mutagenized E. coli threonine deaminase gene containing the L447F mutation”, in the series on soybean seeds, the “free isoleucine concentration in the seed” value was over 600 µg/g.

Turning to “ilvA466: mutagenized E. coli threonine deaminase gene containing the L481F mutation”, in the series on soybean seeds, the “free isoleucine concentration in the seed” value was over 1300 µg/g.

B1: L481K: E. coli threonine deaminase, Leu at position 481 replaced with Lys (protein, listed as Escherichia coli)
chain: MADSQPLSGAPEGAEYLRAVLRAPVYEAAQVTPLQKMEKLSSRLDNVILVKREDRQPVHSFKLRGAYAMMAGLTEEQKAHGVITASAGNHAQGVAFSSARLGVKALIVMPTATADIKVDRLRGFGGEVLLHGANFDEAKRKAIELSQQQGFTWVPPFDHPMVIAGQGTLALELLQQDAHLDRVFVPVGGGGLAACVAVLIKQLMPQIKVIAVEAEDSACLKAALDAGHPVDLPRVGLFAEGVAVKRIGDETFRLCQEYLDDIITVDSDAICAAMKDLFEDVRAVAEPSGALALAGMKKYIALHNIRGERLAHILSGANVNFHGLRYVSERCELVEQREALLAVTIPEEKGSFLKFCQLLGGRSVTEFNYRFADAKNACIFVGVRLSRGLEERKEILQMLNDGGYSVVDLSDDEMAKLHVRYMVGGRPSHPLQERLYSFEFPESPGALLRFLNTLGTYWNISLFHYRSHGTDYGRVLAAFEKGDHEPDFETRLNELGYDCHDETNNPAFRFFLAG
Turning to B1, in series [1] (expressed in E. coli), the enzyme activity entry is listed as “poor enzyme activity”.

B2: L447F (ilvA219): E. coli threonine deaminase, Leu at position 447 replaced with Phe (protein, listed as Escherichia coli)
chain: MADSQPLSGAPEGAEYLRAVLRAPVYEAAQVTPLQKMEKLSSRLDNVILVKREDRQPVHSFKLRGAYAMMAGLTEEQKAHGVITASAGNHAQGVAFSSARLGVKALIVMPTATADIKVDRLRGFGGEVLLHGANFDEAKRKAIELSQQQGFTWVPPFDHPMVIAGQGTLALELLQQDAHLDRVFVPVGGGGLAACVAVLIKQLMPQIKVIAVEAEDSACLKAALDAGHPVDLPRVGLFAEGVAVKRIGDETFRLCQEYLDDIITVDSDAICAAMKDLFEDVRAVAEPSGALALAGMKKYIALHNIRGERLAHILSGANVNFHGLRYVSERCELVEQREALLAVTIPEEKGSFLKFCQLLGGRSVTEFNYRFADAKNACIFVGVRLSRGLEERKEILQMLNDGGYSVVDLSDDEMAKLHVRYMVGGRPSHPLQERLYSFEFPESPGAFLRFLNTLGTYWNISLFHYRSHGTDYGRVLAAFELGDHEPDFETRLNELGYDCHDETNNPAFRFFLAG
With B2, the “cooperativity in substrate binding” value in series [1] (initial velocity vs threonine concentration) is “negative cooperativity”.

B3: L481M: E. coli threonine deaminase, Leu at position 481 replaced with Met (protein, listed as Escherichia coli)
chain: MADSQPLSGAPEGAEYLRAVLRAPVYEAAQVTPLQKMEKLSSRLDNVILVKREDRQPVHSFKLRGAYAMMAGLTEEQKAHGVITASAGNHAQGVAFSSARLGVKALIVMPTATADIKVDRLRGFGGEVLLHGANFDEAKRKAIELSQQQGFTWVPPFDHPMVIAGQGTLALELLQQDAHLDRVFVPVGGGGLAACVAVLIKQLMPQIKVIAVEAEDSACLKAALDAGHPVDLPRVGLFAEGVAVKRIGDETFRLCQEYLDDIITVDSDAICAAMKDLFEDVRAVAEPSGALALAGMKKYIALHNIRGERLAHILSGANVNFHGLRYVSERCELVEQREALLAVTIPEEKGSFLKFCQLLGGRSVTEFNYRFADAKNACIFVGVRLSRGLEERKEILQMLNDGGYSVVDLSDDEMAKLHVRYMVGGRPSHPLQERLYSFEFPESPGALLRFLNTLGTYWNISLFHYRSHGTDYGRVLAAFEMGDHEPDFETRLNELGYDCHDETNNPAFRFFLAG
The term Km denotes the substrate concentration at which the rate is half of its maximum. Usually IC50 stands for the midpoint of a concentration-inhibition curve. With B3, in series [1], the Km amounted to 6.4 mM and the IC50 came out at 100 µM.

B4: L481V: E. coli threonine deaminase, Leu at position 481 replaced with Val (protein, listed as Escherichia coli)
chain: MADSQPLSGAPEGAEYLRAVLRAPVYEAAQVTPLQKMEKLSSRLDNVILVKREDRQPVHSFKLRGAYAMMAGLTEEQKAHGVITASAGNHAQGVAFSSARLGVKALIVMPTATADIKVDRLRGFGGEVLLHGANFDEAKRKAIELSQQQGFTWVPPFDHPMVIAGQGTLALELLQQDAHLDRVFVPVGGGGLAACVAVLIKQLMPQIKVIAVEAEDSACLKAALDAGHPVDLPRVGLFAEGVAVKRIGDETFRLCQEYLDDIITVDSDAICAAMKDLFEDVRAVAEPSGALALAGMKKYIALHNIRGERLAHILSGANVNFHGLRYVSERCELVEQREALLAVTIPEEKGSFLKFCQLLGGRSVTEFNYRFADAKNACIFVGVRLSRGLEERKEILQMLNDGGYSVVDLSDDEMAKLHVRYMVGGRPSHPLQERLYSFEFPESPGALLRFLNTLGTYWNISLFHYRSHGTDYGRVLAAFEVGDHEPDFETRLNELGYDCHDETNNPAFRFFLAG
For B4, in series [1], the Km stood at 7.1 mM and it took 97 µM to reach half-maximal inhibition (IC50).

B5: Wild type Arabidopsis: wild type Arabidopsis threonine deaminase polypeptide (protein, UniProt Q9ZSS6 92-592, looked up)
Threonine dehydratase …: AMEYLTNILSTKVYDIAIESPLQLAKKLSKRLGVRMYLKREDLQPVFSFKLRGAYNMMVKLPADQLAKGVICSSAGNHAQGVALSASKLGCTAVIVMPVTTPEIKWQAVENLGATVVLFGDSYDQAQAHAKIRAEEEGLTFIPPFDHPDVIAGQGTVGMEITRQAKGPLHAIFVPVGGGGLIAGIAAYVKRVSPEVKIIGVEPADANAMALSLHHGERVILDQVGGFADGVAVKEVGEETFRISRNLMDGVVLVTRDAICASIKDMFEEKRNILEPAGALALAGAEAYCKYYGLKDVNVVAITSGANMNFDKLRIVTELANVGRQQEAVLATLMPEKPGSFKQFCELVGPMNISEFKYRCSSEKEAVVLYSVGVHTAGELKALQKRMESSQLKTVNLTTSDLVKDHLRYLMGGRSTVGDEVLCRFTFPERPGALMNFLDSFSPRWNITLFHYRGQGETGANVLVGIQVPEQEMEEFKNRAKALGYDYFLVSDDDYFKLLMH
In the case of B5, the “cooperativity in substrate binding” value in series [2] is recorded as “independent activity”.

The record behind these values is patent publication US20050289668A1, “Plants with increased levels of one or more amino acids” (priority 2003, published 2005).
